Experimental data from PMC11077057, “Identifying human pre-mRNA cleavage and polyadenylation factors by genome-wide CRISPR screens using a dual fluorescence readthrough reporter”.

T1: RPRD1B full length (human, UniProt Q9NQG5 2-326)
T1 sequence: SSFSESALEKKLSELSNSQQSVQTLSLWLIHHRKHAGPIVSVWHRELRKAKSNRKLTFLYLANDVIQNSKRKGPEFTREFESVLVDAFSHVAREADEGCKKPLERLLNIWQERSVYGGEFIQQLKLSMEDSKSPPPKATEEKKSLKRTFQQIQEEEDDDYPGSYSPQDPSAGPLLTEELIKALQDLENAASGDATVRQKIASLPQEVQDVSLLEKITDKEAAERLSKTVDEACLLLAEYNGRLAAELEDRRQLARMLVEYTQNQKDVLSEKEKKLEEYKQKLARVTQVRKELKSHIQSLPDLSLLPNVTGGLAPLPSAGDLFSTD

T2: RPRD1B CID (human, UniProt Q9NQG5 2-135)
T2 sequence: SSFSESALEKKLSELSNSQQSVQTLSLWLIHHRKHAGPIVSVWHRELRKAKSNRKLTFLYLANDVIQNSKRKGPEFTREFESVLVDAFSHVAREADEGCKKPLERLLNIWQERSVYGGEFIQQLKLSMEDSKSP

T3: RPRD1B coiled-coil domain (human, UniProt Q9NQG5 171-304)
T3 sequence: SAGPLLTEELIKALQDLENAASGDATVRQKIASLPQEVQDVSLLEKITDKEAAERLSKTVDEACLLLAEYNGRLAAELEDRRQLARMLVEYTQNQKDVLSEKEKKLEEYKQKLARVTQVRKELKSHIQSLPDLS


Tests used:
Experiment in all cases: EMSA; 0-1 ug protein; heparin 200 ug/ml added after binding; EMSA: 40 mM Tris pH 8.0, 30 mM KCl, 1 mM MgCl2, 0.01% NP-40, 1 mM DTT, 100 ng/ml yeast tRNA, 20 ul, 30 C 30-60 min, then on ice with heparin 200 ug/ml; 4-6% native PAGE 0.5x TBE, cold room
RPRD1B full length = target: T1, RPRD1B full length; conditions: protein: recombinant; (pET28GST-LIC; 6xHis stated); chain copies: 2
RPRD1B CID = target: T2, RPRD1B CID; conditions: protein: recombinant; (pET28GST-LIC; 6xHis stated)
[1] = target: T3, RPRD1B coiled-coil domain; conditions: protein: recombinant; (pET28GST-LIC; 6xHis stated); chain copies: 2

Binder	binding result (RPRD1B full length)	binding result (RPRD1B CID)	binding result [1]
GEMIN7 exon 2 probe (ssRNA) RNA: GCGGCUUCUCUGUUGACAACUCAGCUGGUUCCACACCCUGGCAAUUGUGAAGAGUUGGCCAAAUGUUUGUCCACUGAGCUGAUCUCCUCUCUGGAGCACC	no binding	–	–
GEMIN7 3' UTR probe (ssRNA) RNA: AUUUGAUUUCAUUUUGGGGCGGGCGGUGGCUCGUGCUGGGUCACGUGGUCGUGCCAAGCGCUCCUCCUGUUGCCCCACCUGUGGUUGCUGUGGACUGCAC	binds	binds	no binding
